Measured values from paper doi:10.1101/789909 (bioRxiv, 2019).

T1: EcTatBC with 6xHis tag (complex of TatB and TatC), purified (E. coli, UniProt P69425 1-171; P69423 1-258)
T1 sequence 1: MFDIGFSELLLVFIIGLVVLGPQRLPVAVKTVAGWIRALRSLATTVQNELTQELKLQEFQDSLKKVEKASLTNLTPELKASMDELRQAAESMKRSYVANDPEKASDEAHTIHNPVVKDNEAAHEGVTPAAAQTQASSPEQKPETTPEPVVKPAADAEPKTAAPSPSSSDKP
T1 sequence 2: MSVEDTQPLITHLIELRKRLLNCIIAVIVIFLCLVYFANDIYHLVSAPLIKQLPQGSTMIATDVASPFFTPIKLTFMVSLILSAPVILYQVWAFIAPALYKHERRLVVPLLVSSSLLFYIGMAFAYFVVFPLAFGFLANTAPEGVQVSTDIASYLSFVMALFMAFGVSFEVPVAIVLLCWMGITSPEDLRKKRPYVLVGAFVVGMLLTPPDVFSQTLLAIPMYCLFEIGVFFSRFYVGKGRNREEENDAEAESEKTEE

B1: purified DmsD (natural protein)
chain: MTHFSQQDNFSVAARVLGALFYYAPESAEAAPLVAVLTSDGWETQWPLPEASLAPLVTAFQTQCEETHAQAWQRLFVGPWALPSPPWGSVWLDRESVLFGDSTLALRQWMREKGIQFEMKQNEPEDHFGSLLLMAAWLAENGRQTECEELLAWHLFPWSTRFLDVFIEKAEHPFYRALGELARLTLAQWQSQLLIPVAVKPLFR

Tests used:
purified DmsD (E. coli) = purified DmsD (E. coli) (UniProt P69853); assay: SPR
[1] = target: T1, EcTatBC with 6xHis tag (complex of TatB …); assay: SPR

| Molecule | Kd (purified DmsD (E. coli)) [nM] | binding result [1] |
| --- | --- | --- |
| ssDmsA_45 (printed ssDmsD_45), truncated form of ssDmsA-GFP (domain or fragment) | 55.9 |  |
| B1 |  | binds |
